Substitutions are numbered along the chain they refer to.
B1: DOMAIN_26305 (protein, listed as Geotrypetes seraphini)
chain: QQMQVTFEDVAVSFSQEEWEYLDEGQKELYREVMKENYETVVSLGSPASTPKIISCIECGEEAYIRGEPGSEGRETGKSSC
B2: DOMAIN_26177 (protein, listed as Geotrypetes seraphini)
chain: ASAQVTFEDIAVSFCHEEWRYLDEGQKELYKEVMKENYETLISLGFLCEKPSLISKIEQEEDPCVRDQQNSRERRRRLKNF
B3: DOMAIN_26292 (protein, listed as Geotrypetes seraphini)
chain: QMQVTFEEVAISFSQEEWEYLDEEQKELYREVMKENYQTLISLATGSPTVTPKIIAHIERGEEPYIRGEPGSEERETGNSS
B4: DOMAIN_26268 (protein, listed as Geotrypetes seraphini)
chain: VARMQTRVTFDDIAVSFSQEEWEYLDEGQKELYREVMEENLELLTSLGSLVAQPEQMEELYMMDHHDMGLRGTLLSLCTED
B5: DOMAIN_26012 (protein, listed as Geotrypetes seraphini)
chain: QMQVKFEDIAISFSQEEWEYLNEEQKELYREVMEENYQTLLSLATDSPTFTPKIISYIKRGEEPYIRGEPDSEERESGKSS
B6: DOMAIN_26299 (protein, listed as Geotrypetes seraphini)
chain: QIPVIFEDIVIYFSQEEWKDLEEWQKELYKDVMKENYQTLISLGTGFPTPPPDIISHIERGEEPYIRDELESEKRETGKRG
B7: DOMAIN_26134 (protein, listed as Geotrypetes seraphini)
chain: AQVPVTFEDIAIYFSQEEWEYLDEGQKALYREVMKENYETLLLLGCPGLKPVIISSIEQGEEPCVRKLQERAELYPTAGDE
B8: DOMAIN_26044 (protein, listed as Geotrypetes seraphini)
chain: QMRLRFEDISVSFSQEEWAYLDEEQKELYREVMRDNYQTLISLGIGSPPVTPDIISCIEQGEEPYIRDEPGSEERKTGRSS
B9: DOMAIN_26407 (protein, listed as Colinus virginianus)
chain: PSVPVTFRDVFVQFSRDEWALLDDEQKELHQSVMQSNYEMLMSLYCDLAKPEVSLQMERGEPCLPAEPDLQGTAVSLNPAA
B10: DOMAIN_26103 (protein, listed as Geotrypetes seraphini)
chain: EMRVMFEEITVSFSQEEWEYLDEGQKELYQEVMKENHETLIFLETNLQFVNPDMLSKIRRDSRMSRKRKATRSYAADDEAK
B11: DOMAIN_25996 (protein, listed as Geotrypetes seraphini)
chain: QMPVKFEDIAVSFSQEEWEYLNEEQKELYREVMEENYQTLISLGTGSPPITPDIISHIERGEEPYIREEPGSEERGPVRSS
B12: DOMAIN_26306 (protein, listed as Geotrypetes seraphini)
chain: B11 chain with V4I, E34K, I50V, G76E, V78G
B13: DOMAIN_26180 (protein, listed as Geotrypetes seraphini)
chain: B11 chain with T45I, P49S, I50V, R60G, G76E, V78G
B14: DOMAIN_26131 (protein, listed as Geotrypetes seraphini)
chain: AQMPVKFEDIAVSFSQEEWEYLNEEQKELYREVMEENYQTLISLGSPPVTPDIISHIERGEEPYIREEPGSEEREPGRSSC
B15: DOMAIN_980 (protein)
chain: MPLKAQYQEMVTFEDVAVHFTKTEWTGLSPAQRALYRSVMLENFGNLTALGYPVPKPALISLLEGGDMAWGLEAQDDPPAE
modifications: Pan troglodytes

system: HBEGF locus; format: cell-based, human; settings: high-throughput screen of dXR repression of the HBEGF gene; abundance of each domain in the library before vs after diphtheria toxin selection; listed domains met p-value <0.01 and log2(fold change) >2

| Molecule | Log2 (fold change) |
| --- | --- |
| B1 | 3.0107 |
| B2 | 3.4467 |
| B3 | 2.4722 |
| B4 | 2.1404 |
| B5 | 2.3532 |
| B6 | 2.3704 |
| B7 | 2.4433 |
| B8 | 2.8874 |
| B9 | 2.9778 |
| B10 | 2.5308 |
| B11 | 3.984 |
| B12 | 2.6178 |
| B13 | 3.4522 |
| B14 | 2.4087 |

same assay, conditions: high-throughput screen of dXR repression of the HBEGF gene; change in abundance of each domain in the library before and after diphtheria toxin selection

| Molecule | Log2 (fold change) |
| --- | --- |
| B15 | 2.9297 |
